# Tests used:
# [1] = biological target: human interleukin-6 (Homo sapiens) (UniProt P05231); assay: solution affinity (radiolabel, ZORBAX resin capture); conditions: SB17T: 40 mM HEPES pH 7.5, 102 mM NaCl, 5 mM KCl, 5 mM MgCl2, 1 mM EDTA, 0.05% Tween 20, 37 C
# [2] = biological target: human interleukin-6 (Homo sapiens) (UniProt P05231); assay: SPR; conditions: 2'-OMe at C3,G6,A16,A19,C20,C28; Bn-dU9 to Pe-dU; Bn-dU12 to Nap-dU; other dT Bn-dU; SB17T: 40 mM HEPES pH 7.5, 102 mM NaCl, 5 mM KCl, 5 mM MgCl2, 1 mM EDTA, 0.05% Tween 20, 37 C
# human interleukin-6 (Homo sapiens), sequence (P05231 30-212): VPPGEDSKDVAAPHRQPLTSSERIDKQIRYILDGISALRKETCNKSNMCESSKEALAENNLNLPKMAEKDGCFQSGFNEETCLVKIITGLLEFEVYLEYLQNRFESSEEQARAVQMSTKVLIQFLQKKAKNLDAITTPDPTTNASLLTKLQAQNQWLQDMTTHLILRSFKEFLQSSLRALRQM
sequence,measurement,setting,value
GGCAGGUUUGGUAUUAACACGUUAAGUCGUGG [SL1023],Kd,[1]; Bn-dU replaces dT,1 nM
GGCAGGUUUGGUAUUAACACGUUAAGUCGUGG [SL1025],Kd,[2],0.23 nM
same,Kd,"[1]; 2'-OMe at C3,G6,A16,A19,C20,C28, Bn-dU9 to Pe-dU, Bn-dU12 to Nap-dU, other dT Bn-dU",0.16 nM
GGGGUUAUGUAGCGAGUGCGUAAGGCGGUGGGCGAGGGA [SL1030],binding signal (fold weaker than SL1032),[1]; Nap-dU replaces dT,10

# — paper PMC3961692
